Biological target: SARS-CoV-2 nsp12 (RNA-dependent RNA polymerase) (SARS-CoV-2, UniProt P0DTD1)
Assay: cryo-EM structure

B1: SARS-CoV-2 nsp9 (full-length, residues N1–Q113) (natural protein)
chain: NNELSPVALRQMSCAAGTTQTACTDDNALAYYNTTKGGRFVLALLSDLQDLKWARFPKSDGTGTIYTELEPPCRFVTDTPKGPKVKYLYFIKGLNNLNRGMVLGSLAATVRLQ
B1: binds.
